Experimental data taken from patent US20200283521A1 (GRANULAR THERAPEUTICS, published 2020).

How the values were obtained:
Assay in all cases: cell array, transfected fixed HEK293 cells
[1] = molecular target: T1, ANXA6 (human, UniProt P08133)
T1 construct: expressed in transfected HEK293 cells
T1 sequence (looked up): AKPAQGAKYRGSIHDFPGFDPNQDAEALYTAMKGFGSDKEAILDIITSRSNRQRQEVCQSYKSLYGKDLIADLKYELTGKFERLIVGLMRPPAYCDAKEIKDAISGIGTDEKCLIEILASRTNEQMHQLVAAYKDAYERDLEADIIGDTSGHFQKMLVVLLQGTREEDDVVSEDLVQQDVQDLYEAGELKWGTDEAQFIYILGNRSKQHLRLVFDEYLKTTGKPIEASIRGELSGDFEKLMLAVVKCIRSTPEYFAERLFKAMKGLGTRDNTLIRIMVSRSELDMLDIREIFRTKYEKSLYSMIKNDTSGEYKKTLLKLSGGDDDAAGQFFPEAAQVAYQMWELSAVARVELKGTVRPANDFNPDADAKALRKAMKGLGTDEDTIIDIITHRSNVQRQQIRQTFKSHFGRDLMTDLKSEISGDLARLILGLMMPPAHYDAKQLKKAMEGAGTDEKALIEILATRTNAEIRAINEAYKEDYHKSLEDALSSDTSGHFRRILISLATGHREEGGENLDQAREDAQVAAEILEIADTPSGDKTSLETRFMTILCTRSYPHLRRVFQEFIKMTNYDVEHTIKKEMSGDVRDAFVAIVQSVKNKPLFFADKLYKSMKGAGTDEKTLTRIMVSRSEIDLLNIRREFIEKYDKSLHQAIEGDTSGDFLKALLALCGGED
Protocol: (§1) Transfection of all plasmids was confirmed by screening for the co-encoded marker ZS green (FIG. 13A).
(§2) Primary hits (duplicate spots) were identified by analysing fluorescence (AF647 and ZsGreenl) on ImageQuant. Vectors encoding all hits were sequenced to confirm their correct identities. […] Slides were analysed as above.

[2] = molecular target: T2, EGFR (human, UniProt P00533)
T2 construct: expressed in transfected HEK293 cells
Protocol: as §1, §2

[3] = molecular target: T3, BAIAP2L2 (human, UniProt Q6UXY1)
T3 construct: expressed in transfected HEK293 cells
T3 sequence (looked up): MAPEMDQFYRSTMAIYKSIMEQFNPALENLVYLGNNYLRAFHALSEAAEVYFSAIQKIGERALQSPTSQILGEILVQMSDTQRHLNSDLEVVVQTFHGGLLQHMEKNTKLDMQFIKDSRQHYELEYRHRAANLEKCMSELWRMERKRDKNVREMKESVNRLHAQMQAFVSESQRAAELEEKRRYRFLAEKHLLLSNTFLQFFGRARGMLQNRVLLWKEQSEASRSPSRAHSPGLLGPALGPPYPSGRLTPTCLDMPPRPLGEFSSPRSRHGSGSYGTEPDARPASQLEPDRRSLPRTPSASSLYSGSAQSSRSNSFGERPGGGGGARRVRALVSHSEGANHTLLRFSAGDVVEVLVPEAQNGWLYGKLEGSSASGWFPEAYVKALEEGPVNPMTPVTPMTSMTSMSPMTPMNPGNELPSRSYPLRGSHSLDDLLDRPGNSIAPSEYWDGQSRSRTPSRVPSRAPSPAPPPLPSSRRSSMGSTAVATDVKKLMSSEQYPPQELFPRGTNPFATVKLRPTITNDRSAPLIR
Protocol: as §1, §2

[4] = molecular target: T4, ZG16B (human, UniProt Q96DA0)
T4 construct: expressed in transfected HEK293 cells
T4 sequence (looked up): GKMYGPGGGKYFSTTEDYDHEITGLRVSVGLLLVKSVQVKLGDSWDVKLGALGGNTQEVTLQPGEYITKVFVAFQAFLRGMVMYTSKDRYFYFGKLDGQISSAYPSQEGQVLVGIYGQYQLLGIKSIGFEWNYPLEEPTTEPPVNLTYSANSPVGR
Protocol: as §1, §2

[5] = molecular target: T5, EDN1 (human, UniProt P05305)
T5 construct: expressed in transfected HEK293 cells
T5 sequence (looked up): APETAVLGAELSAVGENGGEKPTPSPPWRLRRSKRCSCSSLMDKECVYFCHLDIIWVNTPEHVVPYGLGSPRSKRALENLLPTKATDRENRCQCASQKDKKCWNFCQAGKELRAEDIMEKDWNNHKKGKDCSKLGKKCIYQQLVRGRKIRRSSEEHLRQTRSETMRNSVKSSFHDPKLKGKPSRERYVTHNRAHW
Protocol: as §1, §2

[6] = molecular target: T6, SLMAP (human, UniProt Q14BN4)
T6 construct: expressed in transfected HEK293 cells
T6 sequence (looked up): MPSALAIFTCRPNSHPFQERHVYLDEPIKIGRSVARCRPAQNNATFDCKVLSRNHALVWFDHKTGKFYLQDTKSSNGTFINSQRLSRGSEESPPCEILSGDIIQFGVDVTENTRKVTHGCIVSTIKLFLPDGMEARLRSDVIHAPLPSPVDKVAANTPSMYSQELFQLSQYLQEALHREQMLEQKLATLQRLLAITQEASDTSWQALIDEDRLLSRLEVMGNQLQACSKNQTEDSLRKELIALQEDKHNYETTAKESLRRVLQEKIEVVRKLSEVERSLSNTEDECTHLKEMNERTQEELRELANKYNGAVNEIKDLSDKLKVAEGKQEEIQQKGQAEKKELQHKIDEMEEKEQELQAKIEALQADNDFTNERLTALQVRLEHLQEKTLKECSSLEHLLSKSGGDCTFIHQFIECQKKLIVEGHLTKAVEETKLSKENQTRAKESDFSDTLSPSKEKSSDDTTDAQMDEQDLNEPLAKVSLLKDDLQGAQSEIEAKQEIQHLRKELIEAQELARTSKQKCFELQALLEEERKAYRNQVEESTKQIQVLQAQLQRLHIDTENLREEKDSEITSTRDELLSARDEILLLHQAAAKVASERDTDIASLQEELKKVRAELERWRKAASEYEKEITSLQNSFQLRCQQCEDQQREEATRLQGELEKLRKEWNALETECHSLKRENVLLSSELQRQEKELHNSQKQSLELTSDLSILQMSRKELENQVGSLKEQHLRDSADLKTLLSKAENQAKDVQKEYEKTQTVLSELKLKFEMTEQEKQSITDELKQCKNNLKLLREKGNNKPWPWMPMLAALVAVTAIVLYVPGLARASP
Protocol: as §1, §2

[7] = molecular target: T7, OSM (human, UniProt P13725)
T7 construct: expressed in transfected HEK293 cells
T7 sequence (looked up): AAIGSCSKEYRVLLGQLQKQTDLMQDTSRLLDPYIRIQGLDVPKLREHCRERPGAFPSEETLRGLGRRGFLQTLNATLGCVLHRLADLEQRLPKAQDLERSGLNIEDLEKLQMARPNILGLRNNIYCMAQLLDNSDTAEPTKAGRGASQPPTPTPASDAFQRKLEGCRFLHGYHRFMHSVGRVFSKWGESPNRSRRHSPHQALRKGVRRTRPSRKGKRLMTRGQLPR
Protocol: as §1, §2

Measured: binding result

B1: MH1, human IgG1 (antibody, V domains shown)
VH: QVQLVQSGAEVKKPGASVKVSCKASGYTFTDYYMNWVRQAPGQGLEWMGRIYPGSGNTYYAQKFQGRVTMTRDTSTSTVYMELSSLRSEDTAVYYCARGVYYYDYWGQGTLVTVSS
VL: DIQMTQSPSSLSASVGDRVTITCRASQGIRTNLAWFQQKPGKAPKSLIYAASSLQSGVPSRFSGSGSGTDFTLTISSLQPEDFATYYCQQYNSYPRTFGGGTKVEIK
notes: IgG1; also called IgG1-MH1
no binding (tested: 2 µg/ml): all assays above
